According to patent publication US20230265151A1, “GIP/GLP1 CO-AGONIST COMPOUNDS” (priority 2020, published 2023):

Tests used:
Test in all cases: cell-based or functional assay
human GIP receptor = target: T1, human GIP receptor (human, UniProt P48546 22-466)
T1 sequence (looked up): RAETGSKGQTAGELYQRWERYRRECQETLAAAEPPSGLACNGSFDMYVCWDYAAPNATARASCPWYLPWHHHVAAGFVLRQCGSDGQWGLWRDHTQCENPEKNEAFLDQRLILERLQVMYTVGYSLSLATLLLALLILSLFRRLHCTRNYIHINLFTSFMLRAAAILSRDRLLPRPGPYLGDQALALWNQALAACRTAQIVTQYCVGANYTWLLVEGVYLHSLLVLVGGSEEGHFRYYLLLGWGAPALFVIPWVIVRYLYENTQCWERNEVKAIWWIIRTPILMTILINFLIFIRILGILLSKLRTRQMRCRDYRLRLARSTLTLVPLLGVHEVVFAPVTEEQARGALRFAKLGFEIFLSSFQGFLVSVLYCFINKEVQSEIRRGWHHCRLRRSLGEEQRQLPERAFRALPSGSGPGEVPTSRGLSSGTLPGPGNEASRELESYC

human GLP-1 receptor = human GLP-1 receptor (human, UniProt P43220 24-463)
human glucagon receptor = human glucagon receptor (human, UniProt P47871 26-477)
[1] = target: human glucagon-like peptide-1 (GLP-1) receptor (human) (UniProt P43220)
[2] = target: T2, human glucose-dependent insulinotropic polypeptide (GIP) receptor (human) (UniProt P48546)
T2 sequence (looked up): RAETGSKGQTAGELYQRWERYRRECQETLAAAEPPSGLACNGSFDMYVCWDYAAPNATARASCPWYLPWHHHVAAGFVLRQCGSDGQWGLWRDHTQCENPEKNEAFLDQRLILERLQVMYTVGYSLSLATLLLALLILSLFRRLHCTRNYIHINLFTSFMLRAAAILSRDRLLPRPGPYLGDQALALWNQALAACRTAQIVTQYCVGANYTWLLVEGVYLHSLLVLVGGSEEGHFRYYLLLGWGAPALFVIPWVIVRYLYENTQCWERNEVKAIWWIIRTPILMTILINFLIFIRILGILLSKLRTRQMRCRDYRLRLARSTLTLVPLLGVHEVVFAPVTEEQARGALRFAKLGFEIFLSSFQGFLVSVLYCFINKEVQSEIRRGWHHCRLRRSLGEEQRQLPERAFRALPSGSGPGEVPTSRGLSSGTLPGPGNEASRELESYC

[3] = target: human glucagon receptor (human) (UniProt P47871)

Binder	cAMP EC50 (1.0% HSA) (human GIP receptor) [nM]	cAMP Emax (1.0% HSA) (human GIP receptor) [%]	cAMP EC50 (1.0% HSA) (human GLP-1 receptor) [nM]	cAMP Emax (1.0% HSA) (human GLP-1 receptor) [%]	cAMP EC50 (1.0% HSA) (human glucagon receptor) [nM]	cAMP EC50 [1] [nM]	cAMP Emax [1] [%]	cAMP EC50 [2] [nM]	cAMP Emax [2] [%]	cAMP EC50 [3] [nM]
YXEGTXTSDXSIXLDXIAQXEFIXXLIKGGPSSGAPPPSK (Y-Aib-EGT-αMeF(2F)-TSD-4Pal-SI-αMeL-LD-Orn-IAQ-Aib-EFI-(D-Glu)-αMeY-LIK((2-[2-(2-Amino-ethoxy)-ethoxy]-acetyl)2-CO-(CH2)12-CO2H)GGPSSGAPPPSK((2-[2-(2-Amino-ethoxy)-ethoxy]-acetyl)2-CO-(CH2)12-CO2H)-NH2) [Example 223]	7.84	79.2	90.5	115	> 9950	1.43	94	0.0252	103	> 9950
YXEGTXTSDXSIXLDXIAQXEFIXXLIKGGPSSGAPPPSK (Y-Aib-EGT-αMeF(2F)-TSD-4Pal-SI-αMeL-LD-Orn-IAQ-Aib-EFI-(D-Glu)-αMeY-LIK((2-[2-(2-Amino-ethoxy)-ethoxy]-acetyl)3-(γ-Glu)-CO-(CH2)12-CO2H)GGPSSGAPPPSK((2-[2-(2-Amino-ethoxy)-ethoxy]-acetyl)3-(γ-Glu)-CO-(CH2)12-CO2H)-NH2) [Example 229]	7.35	80.5	135	99	> 9950	2.25	94.3	0.0253	103	> 9950
YXEGTXTSDXXIXLDXIAQXKFIXXLIEGGPSSGAPPPSK (Y-Aib-EGT-αMeF(2F)-TSD-4Pal-Aib-I-αMeL-LD-Orn-IAQ-Aib-K(2-[2-(2-Amino-ethoxy)-ethoxy]-acetyl)2-(γ-Glu)-(11-(4-carboxyphenoxy)undecanoyl)FI-(D-Glu)-αMeY-LIEGGPSSGAPPPSK((2-[2-(2-Amino-ethoxy)-ethoxy]-acetyl)2-(γ-Glu)-(11-(4-carboxyphenoxy)undecanoyl)-NH2)) [Example 242]	11	83.9	214	102	> 9950	0.584	96.3	0.0197	100	> 9950
YXEGTXTSDXXIXLDXIAQXKFIXXLIEGGPSSGAPPPSK (Y-Aib-EGT-αMeF(2F)-TSD-4Pal-Aib-I-αMeL-LD-Orn-IAQ-Aib-K((2-[2-(2-Amino-ethoxy)-ethoxy]-acetyl)2-(γ-Glu)-(10-(4-carboxyphenoxy)decanoyl))FI-(D-Glu)-αMeY-LIEGGPSSGAPPPSK((2-[2-(2-Amino-ethoxy)-ethoxy]-acetyl)2-(γ-Glu)-(10-(4-carboxyphenoxy)decanoyl))-NH2) [Example 248]	4.1	91.8	56.7	92.7	> 9950	0.537	89.1	0.0176	99.2	> 9950
YXEGTXTSDXXIXLDXKAQXEFIXXLIEGGPSSGAPPPSK (Y-Aib-EGT-αMeF(2F)-TSD-4Pal-Aib-I-αMeL-LD-Orn-K((2-[2-(2-Amino-ethoxy)-ethoxy]-acetyl)2-(γ-Glu)-(10-(4-carboxyphenoxy)decanoyl))AQ-Aib-EFI-(D-Glu)-αMeY-LIEGGPSSGAPPPSK((2-[2-(2-Amino-ethoxy)-ethoxy]-acetyl)2-(γ-Glu)-(10-(4-carboxyphenoxy)decanoyl))-NH2) [Example 245]	0.552	–	27	93.8	> 9950	1.88	88.9	0.0195	96.7	> 9950
YXEGTXTSDYXIXLDXIAQXKFIXXLIEGGPSSGAPPPSK (Y-Aib-EGT-aMeF(2F)-TSDY-Aib-I-aMeL-LD-Orn-IAQ-Aib-K((2-[2-(2-Amino-ethoxy)-ethoxy]-acetyl)2-(γ-Glu)-CO-(CH2)12-CO2H)FI-(D-Glu)-αMeY-LIEGGPSSGAPPPSK((2-[2-(2-Amino-ethoxy)-ethoxy]-acetyl)2-(γ-Glu)-CO-(CH2)12-CO2H)-NH2) [Example 235]	10.1	92.2	598	152	> 9950	0.295	104	0.0168	99.3	> 9950
YXEGTXTSDYXIXLDXKAQXEFIXXLIEGGPSSGAPPPSK (Y-Aib-EGT-αMeF(2F)-TSDY-Aib-I-αMeL-LD-Orn-K((2-[2-(2-Amino-ethoxy)-ethoxy]-acetyl)2-(γ-Glu)-CO-(CH2)12-CO2H)AQ-Aib-EFI-(D-Glu)-αMeY-LIEGGPSSGAPPPSK((2-[2-(2-Amino-ethoxy)-ethoxyl-acetyl)2-(γ-Glu)-CO-(CH2)12-CO2H)-NH2) [Example 232]	1.86	–	33.6	95.4	> 9950	0.565	103	0.0192	101	> 9950
YXEGTXTSDYXIXLDXIAQXKFIXXLIEGGPSSGAPPPSK (Y-Aib-EGT-αMeF(2F)-TSDY-Aib-I-αMeL-LD-Orn-IAQ-Aib-K((2-[2-(2-Amino-ethoxy)-ethoxy]-acetyl)2-(γ-Glu)-(10-(4-carboxyphenoxy)decanoyl))FI-(D-Glu)-αMeY-LIEGGPSSGAPPPSK((2-[2-(2-Amino-ethoxy)-ethoxy]-acetyl)2-(γ-Glu)-(10-(4-carboxyphenoxy)decanoyl))-NH2) [Example 241]	8.02	84.9	103	105	> 9950	0.362	91	0.0213	105	> 9950
YXEGTXTSDYXIXLDXKAQXEFIXXLIEGGPSSGAPPPSK (Y-Aib-EGT-αMeF(2F)-TSDY-Aib-I-αMeL-LD-Orn-K((2-[2-(2-Amino-ethoxy)-ethoxy]-acetyl)2-(γ-Glu)-(10-(4-carboxyphenoxy)decanoyl))AQ-Aib-EFI-(D-Glu)-αMeY-LIEGGPSSGAPPPSK((2-[2-(2-Amino-ethoxy)-ethoxy]-acetyl)2-(γ-Glu)-(10-(4-carboxyphenoxy)decanoyl))-NH2) [Example 238]	1.31	–	27.2	103	> 9950	1.03	107	0.0214	104	> 9950
YXEGTXTSDYXIXLDXKAQXKFIXXLIEGGPSSGAPPPS (Y-Aib-EGT-αMeF(2F)-TSDY-Aib-I-αMeL-LD-Orn-K((2-[2-(2-Amino-ethoxy)-ethoxy]-acetyl)2-(γ-Glu)-CO-(CH2)12-CO2H)AQ-Aib-K((2-[2-(2-Amino-ethoxy)-ethoxy]-acetyl)2-(γ-Glu)-CO-(CH2)12-CO2H)FI-(D-Glu)-αMeY-LIEGGPSSGAPPPS-NH2) [Example 230]	2.57	85.8	49.7	–	> 9950	0.726	90.3	0.0199	105	> 9950
YXEGTXTSDYXIXLDXIAQXKFIXXLIKGGPSSGAPPPS (Y-Aib-EGT-αMeF(2F)-TSDY-Aib-I-αMeL-LD-Orn-IAQ-Aib-K((2-[2-(2-Amino-ethoxy)-ethoxy]-acetyl)2-(γ-Glu)-CO-(CH2)12-CO2H)Fl-(D-Glu)-αMeY-LIK((2-[2-(2-Amino-ethoxy)-ethoxy]-acetyl)2-(γ-Glu)-CO-(CH2)12-CO2H)GGPSSGAPPPS-NH2) [Example 234]	7.58	84.4	156	102	> 9950	0.319	112	0.0182	107	> 9950
YXEGTXTSDYXIXLDXKAQXEFIXXLIKGGPSSGAPPPS (Y-Aib-EGT-αMeF(2F)-TSDY-Aib-I-αMeL-LD-Orn-K((2-[2-(2-Amino-ethoxy)-ethoxy]-acetyl)2-(γ-Glu)-(10-(4-carboxyphenoxy)decanoyl))AQ-Aib-EFI-(D-Glu)-αMeY-LIK((2-[2-(2-Amino-ethoxy)-ethoxy]-acetyl)2-(γ-Glu)-(10-(4-carboxyphenoxy)decanoyl))GGPSSGAPPPS-NH2) [Example 237]	0.889	93.1	38.1	–	> 9950	0.633	102	0.0186	102	> 9950
YXEGTXTSDXXIXLDXKAQXKFIXXLIEGGPSSGAPPPS (Y-Aib-EGT-αMeF(2F)-TSD-4Pal-Aib-I-αMeL-LD-Orn-K((2-[2-(2-Amino-ethoxy)-ethoxy]-acetyl)2-(γ-Glu)-(10-(4-carboxyphenoxy)decanoyl))AQ-Aib-K((2-[2-(2-Amino-ethoxy)-ethoxy]-acetyl)2-(γ-Glu)-(10-(4-carboxyphenoxy)decanoyl))FI-(D-Glu)-αMeY-LIEGGPSSGAPPPS-NH2) [Example 243]	0.728	–	34.7	114	> 9950	0.86	93.2	0.0154	101	> 9950
YXEGTXTSDYXIXLDXKAQXEFIXXLIKGGPSSGAPPPS (Y-Aib-EGT-αMeF(2F)-TSDY-Aib-I-αMeL-LD-Orn-K((2-[2-(2-Amino-ethoxy)-ethoxy]-acetyl)2-(γ-Glu)-CO-(CH2)12-CO2H)AQ-Aib-EFI-(D-Glu)-αMeY-LIK((2-[2-(2-Amino-ethoxy)-ethoxy]-acetyl)2-(γ-Glu)-CO-(CH2)12-CO2H)GGPSSGAPPPS-NH2) [Example 231]	2.46	85.4	51.8	–	> 9950	1.22	107	0.0184	102	> 9950
YXEGTXTSDYXIXLDXKAQXKFIXXLIEGGPSSGAPPPS (Y-Aib-EGT-αMeF(2F)-TSDY-Aib-I-αMeL-LD-Orn-K((2-[2-(2-Amino-ethoxy)-ethoxy]-acetyl)2-(γ-Glu)-(10-(4-carboxyphenoxy)decanoyl))AQ-Aib-K((2-[2-(2-Amino-ethoxy)-ethoxy]-acetyl)2-(γ-Glu)-(10-(4-carboxyphenoxy)decanoyl))FI-(D-Glu)-αMeY-LIEGGPSSGAPPPS-NH2) [Example 236]	0.641	80.5	32.6	125	> 9950	0.336	96.5	0.0154	104	> 9950
YXEGTXTSDXXIXLDXIAQXKFIXXLIKGGPSSGAPPPS (Y-Aib-EGT-αMeF(2F)-TSD-4Pal-Aib-I-αMeL-LD-Orn-IAQ-Aib-K((2-[2-(2-Amino-ethoxy)-ethoxy]-acetyl)2-(γ-Glu)-(10-(4-carboxyphenoxy)decanoyl))FI-(D-Glu)-αMeY-LIK((2-[2-(2-Amino-ethoxy)-ethoxy]-acetyl)2-(γ-Glu)-(10-(4-carboxyphenoxy)decanoyl))GGPSSGAPPPS-NH2) [Example 247]	4.24	90.2	77.7	109	> 9950	1	108	0.022	103	> 9950
YXEGTXTSDYXIXLDXIAQXKFIXXLIKGGPSSGAPPPS (Y-Aib-EGT-αMeF(2F)-TSDY-Aib-I-αMeL-LD-Orn-IAQ-Aib-K((2-[2-(2-Amino-ethoxy)-ethoxy]-acetyl)2-(γ-Glu)-(10-(4-carboxyphenoxy)decanoyl))FI-(D-Glu)-αMeY-LIK((2-[2-(2-Amino-ethoxy)-ethoxy]-acetyl)2-(γ-Glu)-(10-(4-carboxyphenoxy)decanoyl))GGPSSGAPPPS-NH2) [Example 240]	11.7	87.2	150	107	> 9950	0.508	98.5	0.0237	99.1	> 9950
